From paper PMC7870846, “Incorporation of sensing modalities into de novo designed fluorescence-activating proteins” (Nature Communications, 2021)

How the values were obtained:
[1] = In vitro chromophore titration with DFHBI (fluorescence, single-binding site isotherm fit)
Experimental: Fluorescence endpoints were measured on a Synergy Neo2 hybrid multi-mode reader (BioTek) in flat bottom, black polystyrene, non-binding surface 96-well microplates (Corning 3650). In measuring chromophore-binding affinities (Fig. 1d, e), mFAP2, mFAP2a, and mFAP2b, and mFAP10 were produced by large-scale protein purification and SEC purification. Proteins were aliquoted in eight technical replicates in 200 μL final volumes to 20.0 nM final concentration in ten serial dilutions ( 10 dilution factor) of DFHBI starting from 31.6 μM DFHBI or 31.6 μM DFHBI-1T final concentrations, including an eleventh condition without chromophore. Fluorescence was excited at λex = 468 nm and fluorescence emission measured at λem = 530 nm. Background fluorescence endpoints of wells with identical chromophore concentrations but purified protein replaced with an identical volume of high-salt Tev cleavage buffer were measured, and fluorescence endpoints subtracted from those measured with protein. Background-subtracted data were averaged and the means normalized from 0 to 1 and fit to a single-binding site isotherm function using non-linear least squares fitting to obtain a fitted Kd value (Table 1), and the fit scaled to the maximum mean value (Fig. 1d, e).

[2] = Photophysical characterization: absorbance, excitation/emission spectra, extinction coefficients, quantum yields; format: physicochemical
Experimental: Protein preparation: mFAP2a, mFAP2b, and mFAP10 were produced by large-scale protein purification and SEC purification, and dialyzed overnight into DPBS that was adjusted to pH 7.40 using NaOH.
Chromophore preparation: DFHBI (Lucerna) and DFHBI-1T (Lucerna) were dissolved to 20.0 mM in 100% DMSO, and diluted in DPBS (pH 7.40) to measure absorbances on a Jasco V-750 spectrophotometer at peak absorbance wavelengths (417 nm for DFHBI and 422 nm for DFHBI-1T). Following background subtraction of identical buffer without chromophore, Beer’s Law was used to calculate the molar chromophore concentrations of the stock solutions using previously reported extinction coefficients.
Preparation of protein–chromophore complexes: For quantum yield measurements, 1.00 μM, 836 nM, or 919 nM chromophore solutions in DPBS (pH 7.40) at 4.00 mL final volumes were prepared for the following eight conditions: DFHBI only, DFHBI-1T only, 43.5 µM 6xHis-mFAP10 with DFHBI, 43.5 µM 6xHis-mFAP10 with DFHBI-1T, 134 μM 6xHis-mFAP2a with DFHBI, 134 μM 6xHis-mFAP2a with DFHBI-1T, 206 μM 6xHis-mFAP2b with DFHBI, and 206 μM 6xHis-mFAP2b with DFHBI-1T.
Extinction coefficients: Absorbance spectra of protein–chromophore complexes were first measured with a Thermo Scientific BioMate 3S UV–Vis Spectrophotometer (1 nm interval, 800 nm min^−1). The extinction coefficients were then calculated using Beer’s Law:12 A=ε⋅b⋅c, where A is peak absorbance, ε is extinction coefficient, b is path length (1 cm), and c is concentration (1.00 μM, 836 nM, or 919 nM).
Relative quantum yield: A Perkin-Elmer LS-B Luminescence Spectrophotometer (10 nm bandwidth, 1 nm interval, 100 nm min^−1) was used. The fluorescence emission spectra of the protein–chromophore complexes (in DPBS, pH 7.40) and reference dye Acridine Yellow G (in methanol) were first obtained, and the quantum yield was then calculated using the equation[53]:13 ϕc=ϕr⋅1−10^−Ar(λex)/1−10^−Ac(λex)⋅∫Fc(λ)⋅dλ/∫Fr(λ)⋅dλ⋅nc2/nr2, where ϕ is quantum yield, A(λex) is absorbance at the excitation wavelength λex ( λex = 440 nm), F is fluorescence emission, n is refractive index of the solution (1.3350 for DPBS at pH 7.40 and 1.3284 for methanol), and the subscripts “c” and “r” refer to the protein–chromophore complex measured and the reference dye, respectively. […]
Absolute quantum yield: An integrating sphere instrument (Hamamatsu C9920-12) (6 nm excitation bandwidth, 1 nm interval) and a high-sensitivity photonic multi-channel analyzer (Hamamatsu C10027-01) were used to measure a light emission spectrum. Absolute quantum yields were measured for solutions of protein–chromophore complexes in DPBS (pH 7.40) in which ≥95% of the total chromophore was occupying the protein-binding pocket (Table 1). […]

B1: mFAP2b: mFAP2.5 with V67I, "b" for bright (protein)
chain: SRAAQLLPGTWQVTMTNEDGQTSQGQWHFQPRSPYTMDIVAQGTISDGRPIVGYGKATVKTPDTLDIDITYPSLGNIKAQGQITMDSPTQFKWDATTKGENDFHGRLTGTLQRQE
higher affinity for DFHBI than DFHBI-1T [1]: ~ 6.1 fold
weaker affinity for DFHBI than the initial mFAP2 design [1]: ~ 10 fold
brighter fluorescence with DFHBI than DFHBI-1T [2]: ~ 30 fold
